Results: patent publication US20260273112A1 (WASHINGTON UNIVERSITY, published 2026)

Biological target: T1, Recombinant human CD38 protein (R&D, Catalog 2404-AC-010) (human, UniProt P28907 43-300)
T1 construct: In the MST assay the protein was labeled with NT647 (red-maleimide kit) and used at 5 nM; also called purified CD38 protein; purified human CD38 protein
Assay: MST, NT647-labeled recombinant human CD38 at 5 nM, peptide titrated, 37 C
Description: Microscale thermophoresis (MST) assays determined the binding affinity of synthesized peptides to purified CD38 protein and was performed using the Monolith NT.115 (Nanotemper Technologies, Munich, Germany). […] Recombinant human CD38 protein (R&D, Catalog 2404-AC-010, Minneapolis, MN) was labeled with NT647 (Protein labeling kit red-maleimide, Nanotemper Technologies, Germany) and subsequently diluted to 5 nM in MST-2 buffer (50 mM Tris-HCl, pH 7.4, 150 mM NaCl, 10 mM MgCl₂, 2% DMSO, and 0.1% Tween-20). Fluorescence was assessed in MST-2 buffer. Samples were loaded into NT.115 standard capillaries, and analysis was performed at 37° C., 10% LED power, and 40% MST power. The Kd values were calculated from fragment concentration-dependent changes in normalized fluorescence (Fraction Bound) of different CD38 peptides based on the law of mass action using the MO Affinity Analysis v2.3 software.

| Binder | Kd [nM] |
| --- | --- |
| H-KGGSFSRDWTS-NH2 (Synthetic peptide, high score cluster B) [GGS-SL028 (H-Lys-Gly-Gly-Ser-Phe-Ser-Arg-Asp-Trp-Thr-Ser-NH2)] | 82.6 |
| FSRDWTSGGSK (N-terminal acetyl (AC); C-terminal amide (NH2)) [AC-SL028-GGS (AC-Phe-Ser-Arg-Asp-Trp-Thr-Ser-Gly-Gly-Ser-Lys-NH2)] | 243 |
